± gives the uncertainty stated by the source.
B1: Intersectin-1, residues 909 to 971; numbered along this chain, Q15811 (parent)
chain: QGEKVEGLQAQALYPWRAKKDNHLNFNKNDVITVLEQQDMWWFGEVQGQKGWFPKSYVKLISG
B2: Ventral anterior homeobox 1, residues 102 to 157; numbered along this chain, Q5SQQ9 (parent)
chain: RTRTSFTAEQLYRLEMEFQRCQYVVGRERTELARQLNLSETQVKVWFQNRRTKQKK

Variants of: B1
Assay: abundance fitness (aPCA) (normalised: wild type 0, dead -1); higher = more abundant; growth selection in yeast, the domain comes from the species named
Conditions: Homo sapiens
QGEKVEGLQAQALYPWRAKKDNHLNFNKNDVITVLEQQDMWWFGEVQGQKMWFPKSYVKLISG [G51M] showed an abundance fitness of -0.938 ± 0.45. QGEKVEGLQAQALYPWRAKKDNHLNFNKNDVITVLEQQDMWWFGEVQGQKGWFPKSMVKLISG [Y57M] showed an abundance fitness of 0.008 ± 0.13. QGEKVEGLQAQALYPWRAKKDNHLNFNKNDVITVFEQQDMWWFGEVQGQKGWFPKSYVKLISG [L35F] showed an abundance fitness of -0.284 ± 0.26. Work on QGEKVEGLQAQALYPWRAKKDNHLNFNKNDVITVVEQQDMWWFGEVQGQKGWFPKSYVKLISG [L35V] yielded an abundance fitness of -0.34 ± 0.18. Work on QGEKVEGLQAQALYPWRAKKDNHLNFNKNDVITVLQQQDMWWFGEVQGQKGWFPKSYVKLISG [E36Q] yielded an abundance fitness of -0.344 ± 0.34. For QGEKVEGLQAQALYPWRAKKDNHLNFNKNDVITVLAQQDMWWFGEVQGQKGWFPKSYVKLISG [E36A], the abundance fitness was -0.026 ± 0.17. In the case of QGEKVEGLQAQALYPWRAKKDNHLNFNKNDVITVLGQQDMWWFGEVQGQKGWFPKSYVKLISG [E36G], the abundance fitness is reported as -0.076 ± 0.093. QGEKVEGLQAQALYPWGAKKDNHLNFNKNDVITVLEQQDMWWFGEVQGQKGWFPKSYVKLISG [R17G] gave an abundance fitness of -0.306 ± 0.094. For QGEEVEGLQAQALYPWRAKKDNHLNFNKNDVITVLEQQDMWWFGEVQGQKGWFPKSYVKLISG [K4E], the abundance fitness was -0.11 ± 0.13. QGEKVEGLQAQALYPWRAKKDNHLNFNKNDVITVLEQQDMWWFGEVQAQKGWFPKSYVKLISG [G48A] gave an abundance fitness of -0.208 ± 0.11. QGEKVEGLQAQALYMWRAKKDNHLNFNKNDVITVLEQQDMWWFGEVQGQKGWFPKSYVKLISG [P15M] showed an abundance fitness of 0.114 ± 0.21. QGEKVEGLQAQALYPWRAKKDNHLNFNKNDVITVLEQQDMWWFGEVQGQKGWFPKSYVKLIST [G63T] gave an abundance fitness of 0.032 ± 0.15. Variant QGEKVEGLQAQALYPWRAKKDNHLNFNKNDVITVLEQQDMWWFGEVQGQKGWWPKSYVKLISG [F53W] has an abundance fitness of -0.798 ± 0.18. Work on QGEKVEGLQAQALYPWRAKKDNHLNFNKNDVITVLEQQDMWWFGEVQGQKGWQPKSYVKLISG [F53Q] yielded an abundance fitness of -1.03 ± 0.42. QGEKVEGLQAQACYPWRAKKDNHLNFNKNDVITVLEQQDMWWFGEVQGQKGWFPKSYVKLISG [L13C] showed an abundance fitness of -0.268 ± 0.28. QGEKVEGLQAQALYPWRAKKDNHLNFNKNDVITVLEQFDMWWFGEVQGQKGWFPKSYVKLISG [Q38F] gave an abundance fitness of -0.423 ± 0.24. Work on QGEKVEGLQAQALYPWRAKKDNHLNFNKNDVITVLEQMDMWWFGEVQGQKGWFPKSYVKLISG [Q38M] yielded an abundance fitness of -0.061 ± 0.16. Variant QGEKVEGLQAQALYPWRAKKDNHLNFNKNDVITVLEQSDMWWFGEVQGQKGWFPKSYVKLISG [Q38S] has an abundance fitness of -0.148 ± 0.16. Variant QGEKVEGLQAQALYPWRAKKDNHLNFNKNDVITVLEQQDMWWFGEVQGQKGWFPKSYVALISG [K59A] has an abundance fitness of -0.165 ± 0.14. With QGEKVEGLQAQALYPWRGKKDNHLNFNKNDVITVLEQQDMWWFGEVQGQKGWFPKSYVKLISG [A18G] the abundance fitness was 0.043 ± 0.049. With QGEKVEGLQAQALYPWRAKKDNHLNFNANDVITVLEQQDMWWFGEVQGQKGWFPKSYVKLISG [K28A] the abundance fitness was -0.264 ± 0.19. In the case of QGEKVEGLQAQALYPWRAKFDNHLNFNKNDVITVLEQQDMWWFGEVQGQKGWFPKSYVKLISG [K20F], the abundance fitness is reported as -0.101 ± 0.059. QGEKVEGLQAQALYPWRAKYDNHLNFNKNDVITVLEQQDMWWFGEVQGQKGWFPKSYVKLISG [K20Y] showed an abundance fitness of -0.15 ± 0.056. For QGEKVEGLQAQALYPWRAKKDNHLCFNKNDVITVLEQQDMWWFGEVQGQKGWFPKSYVKLISG [N25C], the abundance fitness was -0.057 ± 0.28. Work on QGEKVEGLQAQALYPWRAKKDNHLNFNKNFVITVLEQQDMWWFGEVQGQKGWFPKSYVKLISG [D30F] yielded an abundance fitness of -0.742 ± 0.054. Work on QGEKVEGLQAQALYPWRAKKDNHLNFNKNDVITVLEQQDMWWFGEVQGQKGWFPKIYVKLISG [S56I] yielded an abundance fitness of -0.491 ± 0.26. QGEKVEGLQAQALYPWRAKKDNHLNFNKNDVITVLEQQDMWWFGEVQGQKGWFPKSYVKLIVG [S62V] showed an abundance fitness of -0.253 ± 0.21. Variant QGEKVEGLQAQALYPWRAKKDNHLNFNKNDVIHVLEQQDMWWFGEVQGQKGWFPKSYVKLISG [T33H] has an abundance fitness of -0.201 ± 0.39. In the case of QGEKVEGLQAQALYPWRAKKDNHLNFNKNDVICVLEQQDMWWFGEVQGQKGWFPKSYVKLISG [T33C], the abundance fitness is reported as -0.159 ± 0.11. QGEKVEGLQAQALYPWRAKKDNHLNFNKNDVIVVLEQQDMWWFGEVQGQKGWFPKSYVKLISG [T33V] showed an abundance fitness of -0.113 ± 0.46. QGEKVEGLQAQALYPWRAKKDNHLNFMKNDVITVLEQQDMWWFGEVQGQKGWFPKSYVKLISG [N27M] showed an abundance fitness of -0.037 ± 0.22. Work on QGEKVEGLQAQALYPWRAKKDNHLNFNKNDVITVLEPQDMWWFGEVQGQKGWFPKSYVKLISG [Q37P] yielded an abundance fitness of -0.289 ± 0.18. For QGEKVEGLQAQALYPWRAKKDNHLNFNKNDVITPLEQQDMWWFGEVQGQKGWFPKSYVKLISG [V34P], the abundance fitness was -0.646 ± 0.19. QGEKVEGLQAQALYPWRAKKDNHLNFNKNDVITILEQQDMWWFGEVQGQKGWFPKSYVKLISG [V34I] gave an abundance fitness of 0.221 ± 0.16. Work on QGEKVEGLAAQALYPWRAKKDNHLNFNKNDVITVLEQQDMWWFGEVQGQKGWFPKSYVKLISG [Q9A] yielded an abundance fitness of -0.07 ± 0.092. For QGEKVEGLQAQALYPWRAKKDNHLNFNKNDVITVLEQQDMWWFVEVQGQKGWFPKSYVKLISG [G44V], the abundance fitness was -1.1 ± 0.41. With QGMKVEGLQAQALYPWRAKKDNHLNFNKNDVITVLEQQDMWWFGEVQGQKGWFPKSYVKLISG [E3M] the abundance fitness was -0.312 ± 0.27. For QGWKVEGLQAQALYPWRAKKDNHLNFNKNDVITVLEQQDMWWFGEVQGQKGWFPKSYVKLISG [E3W], the abundance fitness was -0.332 ± 0.2. For QGEKVEGLQAQALYPWRAKKDNHCNFNKNDVITVLEQQDMWWFGEVQGQKGWFPKSYVKLISG [L24C], the abundance fitness was -0.199 ± 0.14. Variant QGEKVEGLQAQALYPWRAKKDNHLNFNKNDVITVLEQQDMWWFGEVQGQKGWFPKSYVKLGSG [I61G] has an abundance fitness of -0.207 ± 0.069. Work on QGEKVEGLQAQALYPWRAKKDNHLNFNKNDVITVLEQQDMWWFGEVQGQKGWFPKSYVKLDSG [I61D] yielded an abundance fitness of -0.159 ± 0.14. With QGEKVEGLQAQALYPWRAKKDNHLNFNKNDVITVLEQQDMWWFGEVQGQKGWFPKSYVKLWSG [I61W] the abundance fitness was -0.274 ± 0.12. Variant QGEKVEGLQAQALYPWRAKKDNHLNFNKNDVITVLEQQDMWWFGEVQGQKGWFPKSYVKLSSG [I61S] has an abundance fitness of -0.301 ± 0.13. In the case of QGEKVEGLQAQALYPWRAKKDCHLNFNKNDVITVLEQQDMWWFGEVQGQKGWFPKSYVKLISG [N22C], the abundance fitness is reported as 0.051 ± 0.18. In the case of QGEKVEGLQAQALYPWRAKKDNHLNFNKNDVITVLEQQDMWWFGEVQGQKGWFDKSYVKLISG [P54D], the abundance fitness is reported as -0.721 ± 0.27. Variant QGEKVEGLQAQALYPWRAKKDNHLNFNKNDVITVLEQQDWWWFGEVQGQKGWFPKSYVKLISG [M40W] has an abundance fitness of -0.475 ± 0.22. With QGEKVEGLQAQALYPWRAKKDNHLNFNKNDVITVLEQQDLWWFGEVQGQKGWFPKSYVKLISG [M40L] the abundance fitness was 0.008 ± 0.094. With QGEKVEGLQAQALYPWRAKKDNHLNFNKNDVITVLEQQDCWWFGEVQGQKGWFPKSYVKLISG [M40C] the abundance fitness was 0.084 ± 0.17. In the case of QGEKVEGLQAQALYPWRAKKDNHLNFNKNDVITVLEQQDMWWFGFVQGQKGWFPKSYVKLISG [E45F], the abundance fitness is reported as -0.055 ± 0.3. QGEKVEGLQAQALYPWRAKKDNHLNFNKNDVITVLEQQDMWWFGVVQGQKGWFPKSYVKLISG [E45V] gave an abundance fitness of -0.013 ± 0.1. With QGEKVEGLQAQALYPWRAKKDNHLNFNKNDVITVLEQQDMWWFGLVQGQKGWFPKSYVKLISG [E45L] the abundance fitness was -0.076 ± 0.096. QGEKVEGLQAQALYPWRAKKDNHLNFNKNDVITVLEQQDMLWFGEVQGQKGWFPKSYVKLISG [W41L] showed an abundance fitness of -0.252 ± 0.089. QGEKVEGLQAQALYPWRAQKDNHLNFNKNDVITVLEQQDMWWFGEVQGQKGWFPKSYVKLISG [K19Q] gave an abundance fitness of 0.069 ± 0.082. QGEKVEGLQAQALYPWRAEKDNHLNFNKNDVITVLEQQDMWWFGEVQGQKGWFPKSYVKLISG [K19E] gave an abundance fitness of 0 ± 0.084. Variant QGEKVEGLQAQALYPWRAIKDNHLNFNKNDVITVLEQQDMWWFGEVQGQKGWFPKSYVKLISG [K19I] has an abundance fitness of -0.028 ± 0.053. QGEKVEGLQAQALYPWRAKKDNHLNFNKNDVITVLEQQDMWWFGEVQGQCGWFPKSYVKLISG [K50C] gave an abundance fitness of -0.113 ± 0.17. For QGEKVEGLQAQALYPWRAKKDNHLNFNKNDVITVLEQQDMWWFGEVQGQMGWFPKSYVKLISG [K50M], the abundance fitness was -0.177 ± 0.26. With QGEKQEGLQAQALYPWRAKKDNHLNFNKNDVITVLEQQDMWWFGEVQGQKGWFPKSYVKLISG [V5Q] the abundance fitness was -0.029 ± 0.14. In the case of QGEKVEGLQAQALYPWRAKKDNHLNFNKNDVITVLEQQDMWWIGEVQGQKGWFPKSYVKLISG [F43I], the abundance fitness is reported as -0.663 ± 0.48. In the case of QGEKVEGLQAQALYPWRAKKNNHLNFNKNDVITVLEQQDMWWFGEVQGQKGWFPKSYVKLISG [D21N], the abundance fitness is reported as -0.265 ± 0.15. In the case of QGEKVEGLQAQALYPWRAKKDNHLNFNKNDVITVLEQQDMWWFGEVMGQKGWFPKSYVKLISG [Q47M], the abundance fitness is reported as -0.097 ± 0.1. In the case of QGEKVEGLQAQALYPWRAKKDNHLNFNKNDVITVLEQQDMWWFGEVLGQKGWFPKSYVKLISG [Q47L], the abundance fitness is reported as -0.254 ± 0.11. In the case of QGEKVEGLQAQALYPWRAKKDNHLNFNKNDVITVLEQQDMWWFGEVQGDKGWFPKSYVKLISG [Q49D], the abundance fitness is reported as -0.466 ± 0.3. QGEKVEGLQAQALYPWRAKKDNPLNFNKNDVITVLEQQDMWWFGEVQGQKGWFPKSYVKLISG [H23P] gave an abundance fitness of -0.596 ± 0.18. Variant QGEKVEGLQAQALYPWRAKKDNHLNFNKLDVITVLEQQDMWWFGEVQGQKGWFPKSYVKLISG [N29L] has an abundance fitness of -0.269 ± 0.075.

Variants of: B2
Assay: as above
Conditions: Homo sapiens
K55H gave an abundance fitness of -0.149 ± 0.26. For K55Y, the abundance fitness was -0.199 ± 0.23. In the case of K55Q, the abundance fitness is reported as 0.29 ± 0.21. Variant K55L has an abundance fitness of 0.128 ± 0.11. K55N showed an abundance fitness of 0.081 ± 0.18. Variant K55R has an abundance fitness of -0.187 ± 0.1.
